This note sets out measurements from the RNAGym collection of RNA variant scans (doi:10.7554/elife.80360).

First the molecules themselves.
B1: HDV Ribozyme (parent)
chain: GGCCGGCAUGGUCCCAGCCUCCUCGCUGGCGCCGGCUGGGCAACAUUCCGAGGGGACCGUCCCCUCGGUAAUGGCGAAUGGGACCCA

The variants in the series derive from B1. The series can be described thus: self-cleavage, relative activity (ratio to wild type); higher = more cleavage; co-transcriptional.
As to C14G U60G, the self-cleavage is 0.511. C15A G53C: the self-cleavage was 0.674. The value for C15A G53U was 0.808; that for C15A C64A was 0.689.

C15A C64U: the self-cleavage is 0.623. The value for C15A C64G was 0.81; that for C14G A70G was 0.831. In the case of C14G A70C, the self-cleavage is 0.185.

In the case of C14G A70U, the self-cleavage came to 0.529. C14U A78G: the self-cleavage stood at 0.831. For the variant C14U A78U, the self-cleavage was 0.156.

On to C14G U46A, for which the self-cleavage amounted to 0.237. For the variant C14G U46G, the self-cleavage worked out at 0.237. Take C15A U47G: the self-cleavage was 0.35. C15A U47A: the self-cleavage came out at 0.522. As for C15A U47C, the self-cleavage was determined as 0.317. Turning to C15A A87U, the self-cleavage was determined as 0.746. Take C15A A87G: the self-cleavage was 0.776. The value for C15A A87C was 0.654; that for C15A C58U was 0.458.

Turning to C14G U72C, the self-cleavage stood at 0.0978. Consider C14G U72A, for which the self-cleavage worked out at 0.383.

Take C14G U72G: the self-cleavage amounted to 0.312. The value for C14U U65A was 1.22. Take C14U U65G: the self-cleavage was 0.997. On to C14U U65C, for which the self-cleavage is 0.997.

With C15A C84G, the self-cleavage was 0.244. For the variant C14U C48A, the self-cleavage is 0.928. On to C14U C48G, for which the self-cleavage was 1.08. Next, C14G G40C: 0; C14G G40A: 0.623. In the case of C14U C64A, the self-cleavage was found to be 0.939. Next, C14U C64U: 0.972; C14U G59U: 0.997; C14U G59A: 1.31. Next, C14U U46C: 1.03.

As for C14U C21U, the self-cleavage was 0.237. Next, C14U C21A: 0; C15A C41U: 0.399; C15A C41A: 0.655. Next, C15A C41G: 0.285; C15A A56C: 0.782; C14U C61U: 1.22. The value for C14U C61A was 1.14. On to C14U U69A, for which the self-cleavage was determined as 1.02. Next, C14U A43U: 0.443; C14U C75U: 0.138. The value for C15A G67U was 0.633; that for C14U A42U was 0.587. C14U A42C: the self-cleavage worked out at 0.232. The value for C14A U79G was 0.575.

C15A G39U: the self-cleavage is 0.177.

Regarding C15A G39C, the self-cleavage amounted to 0.107. Next, C14U G31U: 0.429. As for C14U G31C, the self-cleavage was found to be 0.342.

Take C14U G67U: the self-cleavage came to 1.08. The value for C14G A71U was 0.529; that for C14G A71C was 0.208. The value for C14G A71G was 0.712. Next, C14G A77U: 0.

As for C14G A77C, the self-cleavage turned out to be 0. Turning to C14G A77G, the self-cleavage is 0.415. For the variant C14U C62U, the self-cleavage is 0.923. The value for C14U C62G was 0.751; that for C15A U69C was 0.598; that for C15A C32A was 0.151. Take C15A C32G: the self-cleavage stood at 0.107. Next, C14U C30G: 0.0923; C14G C19U: 0.0852; C14G C19A: 0. In the case of C14G C19G, the self-cleavage is 0.0449. Consider C14G C15U, for which the self-cleavage was found to be 0.111. For C14G C15G, the self-cleavage turned out to be 0. Next, C14G C15A: 0.312; C15A G74U: 0.218; C15A G74A: 0.174. As for C15A G74C, the self-cleavage came to 0.185. The value for C14U G28C was 0.237; that for C14U G28A was 0.0811. As to C14G U79A, the self-cleavage worked out at 0.266. Next, C15A G50U: 0.674; C15A G50A: 0.527; C15A G50C: 0.404.

Consider C14U U60C, for which the self-cleavage was 1.11.

Take C14U U60A: the self-cleavage amounted to 1.23. The value for C14U U60G was 0.772; that for C14U U20A was 0.145; that for C14U U20G was 0.145. Regarding C14G G17C, the self-cleavage is 0.0615. Next, C14G G67C: 0.554. Turning to C14G A45C, the self-cleavage was determined as 0.434. Next, C14G A45G: 0.0875.

For C15A C66U, the self-cleavage came to 0.909. C15A C66A: the self-cleavage was found to be 0.684. The value for C15A C66G was 0.688. As to C15A C18G, the self-cleavage amounted to 0.111. Next, C15A C18A: 0.115; C14U G81C: 0.806. Next, C15A C33G: 0; C14G G81U: 0.923; C14U U23C: 1.47. Take C14U U23G: the self-cleavage is 0.712. Take C14G A78G: the self-cleavage is 0.317.

On to C14G A78C, for which the self-cleavage turned out to be 0.108.

C14G A87C: the self-cleavage came out at 0.793. Next, C14G A87U: 0.895; C15G A45C: 0.217. The value for C15G A45G was 0.665; that for C14G C48G was 0.332. In the case of C14U G74C, the self-cleavage is 0.369. As to C14U G74A, the self-cleavage amounted to 0.604. The value for C14G G38U was 0.106; that for C14U U27C was 0.723; that for C14U U27G was 1.11.

C14U U27A: the self-cleavage was 1.03. C14U G54C: the self-cleavage was found to be 1.2. Regarding C14U G54A, the self-cleavage stood at 1.04. The value for C14U C85A was 0.978; that for C14G G31U was 0.0386; that for C14G G31A was 0.324. For C14G U47G, the self-cleavage came out at 0.383. The value for C14G U47C was 0.604; that for C14U U79A was 1.02.

As to C15A A71G, the self-cleavage came out at 0.443.

Turning to C15A A71C, the self-cleavage came to 0.35. Take C14G C84U: the self-cleavage came out at 0.415. The value for C14U C22A was 0.339; that for C15A A51G was 0.923. C15A A51U: the self-cleavage came out at 0.573. With C15A A51C, the self-cleavage was 1.14. C14U C58U: the self-cleavage came to 0.991. Turning to C14U C58G, the self-cleavage was determined as 1.17.

In the case of C14G A16G, the self-cleavage is 0.554. As for C14G C85G, the self-cleavage is 0.415. Take C14G C85A: the self-cleavage was determined as 0.166.

As to C14U G68U, the self-cleavage stood at 1.04. The value for C14U G68A was 0.95; that for C14U A45C was 0.646; that for C14G C18G was 0.

Take C14U C44U: the self-cleavage amounted to 0.831. The value for C14G U20A was 0; that for C14G U20C was 0.0554; that for C14G G29A was 0.107. Next, C14U A16U: 1.09.

On to C14U A16C, for which the self-cleavage worked out at 1.07. The value for C15A G55C was 0.482; that for C15A G55U was 0.608.

On to C14U G34U, for which the self-cleavage came to 0.248. The value for C15A G59C was 0.723; that for C15A A70U was 0.723; that for C15A A70G was 0.755. In the case of C14G C44G, the self-cleavage stood at 0.196. The value for C14U G35U was 0.288. The value for C14U G35C was 0.123; that for C15A G17C was 0.0978. Take C14U G55U: the self-cleavage amounted to 1.24. On to C15A A83G, for which the self-cleavage came out at 0.284. Take C15A A83U: the self-cleavage is 0.0639. C14U G53U: the self-cleavage amounted to 1.16. Regarding C14U G53A, the self-cleavage stood at 1.11. In the case of C14U G53C, the self-cleavage was 1.07. Next, C15A C24A: 0.378. The value for C15A C24U was 0.0811; that for C15G A51C was 0.623. Consider C15G A51G, for which the self-cleavage amounted to 0.587.

As for C15A C30G, the self-cleavage is 0.138. Take C15A C30A: the self-cleavage worked out at 0.326.
